The values below come from patent US20140255414A1.

For the test, the target named is Aβ(pE11-30) peptide. The experiment in a line: direct ELISA, adsorbed Aβ(pE11-30), 1 µg/ml biotinylated antibody with SA-HRP.
Sequence of Aβ(pE11-30) peptide (peptide, as listed by the source): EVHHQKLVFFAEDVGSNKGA

On to “biotinylated monoclonal mouse anti Aβ(17-24) antibody (clone 4G8, Covance)”, for which the ELISA signal relative to clone 13 turned out to be 5 times lower.
